Reference: the RNAGym collection of RNA variant scans (doi:10.7554/elife.80360)

B1: Hairpin Ribozyme (parent)
chain: GUCCUCUUUCACGUGCGCGUGAAAGAGAGAAGUGAACCAGAGAAACACACGUUGUGGUAUAUUACCUGGUA

Variants of: B1
Assay: self-cleavage, relative activity (ratio to wild type); higher = more cleavage; co-transcriptional

First: A23G G27U
Second: A24G C65G
The self-cleavage of the first is lower: 0.254 for the first, 0.296 for the second.

Going from A24G G56U to A24G G56C, the self-cleavage rises from 0.122 to 0.14.

First: A24U G34C
Second: A24U G34U
The self-cleavage of the first is lower: 1.18 for the first, 1.22 for the second.

Compared with A24U G34A, A24C A59C is lower in self-cleavage: 1.02 for the first, 0.209 for the second.

Compared with A23U C37A, A23G G25C is higher in self-cleavage: 0.324 for the first, 0.521 for the second.

First: A23U U70C
Second: A24U A71C
The self-cleavage of the first is lower: 0.909 for the first, 1.27 for the second.

Compared with A23U G29U, A24G A28G is higher in self-cleavage: 0.142 for the first, 0.882 for the second.

Compared with A23G A61U, A24G G54A is higher in self-cleavage: 0.138 for the first, 0.387 for the second.

Compared with A24G G54U, A24C G57U is lower in self-cleavage: 0.607 for the first, 0.14 for the second.

Going from A24C G57C to A24U C46U, the self-cleavage rises from 0.131 to 0.264.

Compared with A24U C46G, A23C U58G is higher in self-cleavage: 0.113 for the first, 0.674 for the second.

Going from G25A A31U to A23U G32C, the self-cleavage rises from 0.0553 to 0.231.

Compared with A22U G54U, A22U G54A is lower in self-cleavage: 0.518 for the first, 0.335 for the second.

Compared with A22U G54C, A24G A71G is higher in self-cleavage: 0.333 for the first, 1.07 for the second.

Going from A24G A71U to A24U A41C, the self-cleavage rises from 0.667 to 1.1.

Going from A24U A41U to A23G G69A, the self-cleavage falls from 1.17 to 0.369.

First: A24U A45C
Second: A23U A41G
The self-cleavage of the first is lower: 0.179 for the first, 0.749 for the second.

First: A23G A71G
Second: A23G A71U
The self-cleavage of the first is higher: 0.975 for the first, 0.634 for the second.

First: A23C G34U
Second: A23C G34A
The self-cleavage of the first is higher: 1.14 for the first, 1.1 for the second.

Going from A23C G34C to A24U A59C, the self-cleavage falls from 1.26 to 0.139.

First: A24C A47U
Second: A22U G57U
The self-cleavage of the first is lower: 0.0898 for the first, 0.366 for the second.

Compared with A24U A35G, A22U U58G is higher in self-cleavage: 0.751 for the first, 0.769 for the second.

Compared with A22U U58A, A24U C48G is lower in self-cleavage: 0.589 for the first, 0.245 for the second.

Going from A23C G25U to A23C G25C, the self-cleavage falls from 0.172 to 0.147.

First: A23C A31G
Second: A24G A30U
The self-cleavage of the first is higher: 0.696 for the first, 0.124 for the second.

Compared with A24G A30C, A23G A44U is lower in self-cleavage: 0.119 for the first, 0.0965 for the second.

Compared with A24G G57U, A24C A36U is higher in self-cleavage: 0.307 for the first, 0.556 for the second.

First: A24U U58C
Second: A24U U58G
The self-cleavage of the first is higher: 0.834 for the first, 0.483 for the second.

Compared with A24U U58A, A24G U62A is lower in self-cleavage: 0.724 for the first, 0.316 for the second.

Going from A22U A64U to A22U A64G, the self-cleavage rises from 0.14 to 0.474.

Going from A24G A61C to A23C A59U, the self-cleavage falls from 0.203 to 0.174.

First: A23U A71G
Second: A23U A45C
The self-cleavage of the first is higher: 0.876 for the first, 0.111 for the second.

First: A23G G56A
Second: A22U A28C
The self-cleavage of the first is lower: 0.186 for the first, 0.561 for the second.

Going from A22U A28U to A24G A31G, the self-cleavage falls from 0.67 to 0.662.

Going from A22U U70C to A23U A24C, the self-cleavage rises from 0.876 to 1.02.

First: A24C C50G
Second: A23C G68A
The self-cleavage of the first is higher: 0.326 for the first, 0.26 for the second.

Going from A23U U60A to A24U A30U, the self-cleavage falls from 0.819 to 0.168.

First: A24U A30C
Second: A24G G32C
The self-cleavage of the first is higher: 0.332 for the first, 0.242 for the second.

Going from A24G G32U to A24G G32A, the self-cleavage rises from 0.0918 to 0.14.

Compared with A24C U70A, A23U A39U is lower in self-cleavage: 0.985 for the first, 0.385 for the second.

Going from A23U A39G to A24U U70A, the self-cleavage rises from 0.298 to 0.877.

First: A24U U70G
Second: A24U U70C
The self-cleavage of the first is lower: 0.533 for the first, 0.743 for the second.

First: A24C A64G
Second: A24C A31G
The self-cleavage of the first is lower: 0.503 for the first, 0.66 for the second.

Going from A24U G68U to A23C U67G, the self-cleavage rises from 0.22 to 0.27.

First: A24U A47U
Second: A23G G57U
The self-cleavage of the first is higher: 0.144 for the first, 0.142 for the second.

First: A23G A36C
Second: A23C U33A
The self-cleavage of the first is higher: 0.69 for the first, 0.109 for the second.

Going from A23U U33C to A23U A49C, the self-cleavage falls from 0.144 to 0.117.

First: A23G G54A
Second: A23G G40C
The self-cleavage of the first is higher: 0.489 for the first, 0.16 for the second.

Going from A24U C65G to A24U G69U, the self-cleavage falls from 0.302 to 0.192.

Compared with A24C U67A, A24C U67G is higher in self-cleavage: 0.185 for the first, 0.27 for the second.

Compared with A24G G34A, A24G G34U is higher in self-cleavage: 0.862 for the first, 0.956 for the second.

Going from A24G G34C to A24C C48G, the self-cleavage falls from 1.34 to 0.133.

Compared with A23C C65G, A23G U53G is higher in self-cleavage: 0.186 for the first, 0.706 for the second.

First: A24U A61G
Second: A24C A39C
The self-cleavage of the first is lower: 0.231 for the first, 0.554 for the second.

Going from A23U U52C to A23U U52A, the self-cleavage rises from 0.677 to 0.947.

Going from A24C G27C to A24C G68U, the self-cleavage falls from 0.228 to 0.223.

Going from A24C G68C to A24C A71U, the self-cleavage rises from 0.255 to 0.696.

Going from A23U A61U to A24G U63G, the self-cleavage rises from 0.0982 to 0.154.

First: A24G C46A
Second: A24G C46G
The self-cleavage of the first is higher: 0.107 for the first, 0.105 for the second.

Going from A23G A28U to A22U U33C, the self-cleavage falls from 0.417 to 0.235.

First: A24G U70G
Second: A23C U53A
The self-cleavage of the first is higher: 0.834 for the first, 0.757 for the second.

First: A24C A41U
Second: A24C A41C
The self-cleavage of the first is lower: 0.996 for the first, 1.01 for the second.

First: A23G U63C
Second: A24C A26C
The self-cleavage of the first is lower: 0.148 for the first, 0.338 for the second.

Going from A24C A26G to A24C A26U, the self-cleavage falls from 0.835 to 0.463.

First: A24C G29U
Second: A24C G29C
The self-cleavage of the first is lower: 0.0732 for the first, 0.208 for the second.

First: A24C G29A
Second: A24C A44C
The self-cleavage of the first is lower: 0.0206 for the first, 0.0908 for the second.

Going from A24G G69C to A24C G25C, the self-cleavage rises from 0.238 to 0.315.

Going from A23C A30C to A24C U53A, the self-cleavage rises from 0.246 to 1.08.

Compared with A24C U53C, A24C C37A is lower in self-cleavage: 0.735 for the first, 0.352 for the second.

Going from A24U A36C to A23U G40U, the self-cleavage falls from 0.517 to 0.134.

Compared with A23U G40C, A24G A43C is higher in self-cleavage: 0.1 for the first, 0.19 for the second.

First: A24G A43U
Second: A24G A64G
The self-cleavage of the first is lower: 0.104 for the first, 0.533 for the second.

Compared with A23G A49G, A23G A49C is lower in self-cleavage: 0.426 for the first, 0.159 for the second.

Compared with A24G G27U, A23G U52A is higher in self-cleavage: 0.303 for the first, 0.899 for the second.

First: A23G U52C
Second: A22U A59C
The self-cleavage of the first is higher: 0.713 for the first, 0.17 for the second.

First: A23C A49C
Second: A22U C50G
The self-cleavage of the first is lower: 0.136 for the first, 0.223 for the second.

Going from A23G G34U to A23U C66A, the self-cleavage falls from 1.29 to 0.294.

Going from A23C A36G to A23G A59G, the self-cleavage falls from 1.08 to 0.184.

Compared with A24C U52C, A24C G42C is lower in self-cleavage: 0.872 for the first, 0.342 for the second.

Compared with A24C G42A, A22U G51U is higher in self-cleavage: 0.195 for the first, 0.761 for the second.

First: A22U G51C
Second: A24U C66U
The self-cleavage of the first is higher: 0.607 for the first, 0.412 for the second.

Compared with A24U C66A, A24U C66G is higher in self-cleavage: 0.137 for the first, 0.207 for the second.

Going from A23C A35C to A23C A35U, the self-cleavage falls from 0.797 to 0.559.

A23C U55A gave a self-cleavage of 0.17.
